This passage reports abundance fitness results from the Human Domainome abundance scans (Beltran et al. 2025).

B1: POU domain, class 5, transcription factor 1, residues 134 to 212; numbered along this chain, Q01860 (parent)
chain: EESQDIKALQKELEQFAKLLKQKRITLGYTQADVGLTLGVLFGKVFSQTTICRFEALQLSFKNMCKLRPLLQKWVEEAD

± gives the uncertainty stated by the source.

Variants of B1 are the subject of this series. Nature of the series: abundance fitness (aPCA) (normalised: wild type 0, dead -1); higher = more abundant; growth selection in yeast, the domain comes from the species named. The conditions noted are these: Homo sapiens.
For the variant EESQDIKALQKELEQFAKLLKQKRITLGYTQADPGLTLGVLFGKVFSQTTICRFEALQLSFKNMCKLRPLLQKWVEEAD [V34P], the abundance fitness is 0.101 ± 0.2.
The figure for EESQDIKALQKELEQFAKLLKQKRITLGYTQADLGLTLGVLFGKVFSQTTICRFEALQLSFKNMCKLRPLLQKWVEEAD [V34L] is -0.258 ± 0.21.
The figure for EESQDIKALQKELEQFAKLLKQKRITLGYTQADIGLTLGVLFGKVFSQTTICRFEALQLSFKNMCKLRPLLQKWVEEAD [V34I] is -0.031 ± 0.35; for EESQDIKALQKELEQFAKLLKQKRITLGYTQADGGLTLGVLFGKVFSQTTICRFEALQLSFKNMCKLRPLLQKWVEEAD [V34G] it is -0.518 ± 0.17.
On to EESQDIKALQKELEQFAKLLKQKRITLGYTQADQGLTLGVLFGKVFSQTTICRFEALQLSFKNMCKLRPLLQKWVEEAD [V34Q], for which the abundance fitness was -0.231 ± 0.32.
In the case of EESQDIKALQKELEQFAKLLKQKRITLGYTQADTGLTLGVLFGKVFSQTTICRFEALQLSFKNMCKLRPLLQKWVEEAD [V34T], the abundance fitness was -0.797 ± 0.47.
EESQDIKALQKELEQFAKLLKQKRITLGYTQADRGLTLGVLFGKVFSQTTICRFEALQLSFKNMCKLRPLLQKWVEEAD [V34R]: the abundance fitness was -0.637 ± 0.2.
Regarding EESQDIKALQKELEQFAKLLKQKRITLGYTQADAGLTLGVLFGKVFSQTTICRFEALQLSFKNMCKLRPLLQKWVEEAD [V34A], the abundance fitness was -0.742 ± 0.29.
Turning to EESQDIKALQKELEQFAKLLKQKRITLGYTQADVGMTLGVLFGKVFSQTTICRFEALQLSFKNMCKLRPLLQKWVEEAD [L36M], the abundance fitness was 0.168 ± 0.15.
EESQDIKALQKELEQFAKLLKQKRITLGYTQADVGQTLGVLFGKVFSQTTICRFEALQLSFKNMCKLRPLLQKWVEEAD [L36Q]: the abundance fitness was determined as 0.283 ± 0.14.
As for EESQDIKALQKELEQFAKLLKQKRITLGYTQADVGYTLGVLFGKVFSQTTICRFEALQLSFKNMCKLRPLLQKWVEEAD [L36Y], the figure is -0.037 ± 0.32; as for EESQDIKALQKELEQFAKLLKQKRITLGYTQADVGPTLGVLFGKVFSQTTICRFEALQLSFKNMCKLRPLLQKWVEEAD [L36P], -0.6 ± 0.26.
As for EESQDIKALQKELEQFAKLLKQKRITLGYTQADVGITLGVLFGKVFSQTTICRFEALQLSFKNMCKLRPLLQKWVEEAD [L36I], the figure is 0.311 ± 0.2; as for EESQDIKALQKELEQFAKLLKQKRITLGYTQADVGCTLGVLFGKVFSQTTICRFEALQLSFKNMCKLRPLLQKWVEEAD [L36C], 0.111 ± 0.16; as for EESQDIKALQKELEQFAKLLKQKRITLGYTQADVGWTLGVLFGKVFSQTTICRFEALQLSFKNMCKLRPLLQKWVEEAD [L36W], 0.249 ± 0.077.
Regarding EESQDIKALQKELEQFAKLLKQKRITLGYTQADVGRTLGVLFGKVFSQTTICRFEALQLSFKNMCKLRPLLQKWVEEAD [L36R], the abundance fitness came to 0.235 ± 0.059.
As for EESQDIKALQKELEQFAKLLKQKRITLGYTQADVGSTLGVLFGKVFSQTTICRFEALQLSFKNMCKLRPLLQKWVEEAD [L36S], the figure is 0.105 ± 0.088; as for EESQDIKALQKELEQFAKLLKQKRITLGYTQADVGETLGVLFGKVFSQTTICRFEALQLSFKNMCKLRPLLQKWVEEAD [L36E], 0.155 ± 0.094.
The figure for EESQDIKALQKELEQFAKLLKQKRITLGYTQADVGHTLGVLFGKVFSQTTICRFEALQLSFKNMCKLRPLLQKWVEEAD [L36H] is 0.362 ± 0.15; for EESQDIKALQKELEQFAKLLKQKRITLGYTQADVGNTLGVLFGKVFSQTTICRFEALQLSFKNMCKLRPLLQKWVEEAD [L36N] it is 0.144 ± 0.21; for EESQDIKALQKELEQFAKLLKQKRITLGYTQADVGATLGVLFGKVFSQTTICRFEALQLSFKNMCKLRPLLQKWVEEAD [L36A] it is 0.273 ± 0.065.
The figure for EESQDIKALQKELEQFAKLLKQKRITLGYTQADVGTTLGVLFGKVFSQTTICRFEALQLSFKNMCKLRPLLQKWVEEAD [L36T] is 0.293 ± 0.096; for EESQDIKALQKELEQFAKLLKQKRITLGYTQADVGFTLGVLFGKVFSQTTICRFEALQLSFKNMCKLRPLLQKWVEEAD [L36F] it is 0.013 ± 0.26; for EESQDIKALQKELEQFAKLLKQKRITLGYTQADVGKTLGVLFGKVFSQTTICRFEALQLSFKNMCKLRPLLQKWVEEAD [L36K] it is 0.087 ± 0.15.
For EESQDIKALQKELEQFAKLLKQKRITLGYTQADVGDTLGVLFGKVFSQTTICRFEALQLSFKNMCKLRPLLQKWVEEAD [L36D], the abundance fitness was 0.112 ± 0.1.
As to EESQDIKALQKELEQFAKLLKQKRITLGYTQADVGVTLGVLFGKVFSQTTICRFEALQLSFKNMCKLRPLLQKWVEEAD [L36V], the abundance fitness is 0.002 ± 0.065.
The figure for EESQDIKALQKELEQFAKLLKQKRITLGYTQADVGGTLGVLFGKVFSQTTICRFEALQLSFKNMCKLRPLLQKWVEEAD [L36G] is -0.306 ± 0.085.
Turning to EESQDIKALQKELEQFAKLLKQKRITLGYTQADVALTLGVLFGKVFSQTTICRFEALQLSFKNMCKLRPLLQKWVEEAD [G35A], the abundance fitness worked out at 0.266 ± 0.092.
As for EESQDIKALQKELEQFAKLLKQKRITLGYTQADVTLTLGVLFGKVFSQTTICRFEALQLSFKNMCKLRPLLQKWVEEAD [G35T], the figure is -0.697 ± 0.42.
As for EESQDIKALQKELEQFAKLLKQKRITLGYTQADVPLTLGVLFGKVFSQTTICRFEALQLSFKNMCKLRPLLQKWVEEAD [G35P], the abundance fitness was -0.452 ± 0.29.
The figure for EESQDIKALQKELEQFAKLLKQKRITLGYTQADVCLTLGVLFGKVFSQTTICRFEALQLSFKNMCKLRPLLQKWVEEAD [G35C] is -0.64 ± 0.32.
As for EESQDIKALQKELEQFAKLLKQKRITLGYTQADVVLTLGVLFGKVFSQTTICRFEALQLSFKNMCKLRPLLQKWVEEAD [G35V], the abundance fitness was -0.743 ± 0.3.
Consider EESQDIKALQKELEQFAKLLKQKRITLGYTQADVLLTLGVLFGKVFSQTTICRFEALQLSFKNMCKLRPLLQKWVEEAD [G35L], for which the abundance fitness was -0.769 ± 0.46.
For the variant EESQDIKALQKELEQFAKLLKQKRITLGYTQADVRLTLGVLFGKVFSQTTICRFEALQLSFKNMCKLRPLLQKWVEEAD [G35R], the abundance fitness is -0.32 ± 0.17.
